Source: CN111018982A (DONGGUAN PENGZHI BIOTECHNOLOGY CO LTD, dated 2020)
Like-named read-outs stand apart in the source and are kept apart here.

Experiments:
[1] = target: T1, cTnI质控品重组抗原 (human, UniProt P19429 1-210, limits assumed); test: BLI, antibody captured on AMC sensor, cTnI recombinant protein in solution
T1 construct: 人cTnI蛋白); also called cTnI质控品重组蛋白(公司自产重组抗原); 心肌肌钙蛋白I

[2] = target: T1, cTnI质控品重组抗原; test: as above; remark: listed apart in the source

T1 sequence (P19429 whole entry): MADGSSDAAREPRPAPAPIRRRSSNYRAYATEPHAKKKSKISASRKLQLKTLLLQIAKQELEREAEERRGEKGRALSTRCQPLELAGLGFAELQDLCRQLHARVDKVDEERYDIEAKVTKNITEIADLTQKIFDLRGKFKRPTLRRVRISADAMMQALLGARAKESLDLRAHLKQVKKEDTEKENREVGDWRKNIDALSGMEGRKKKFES

B1: Anti-cTnI 3C7 重组抗体 (WT) (antibody, V domains shown)
VH: EVKLDETGGGLVQPGRPMKLSCIASGATFSGYWMQWVRQSPEKGLEWVAQLRNGPYDFDTFYSDSVKDRFTISRDDSKSVYLQMNNLRAEDMGIYYCTPHFVHWGQGTLVTVSA
VL: DIVMTQSPSSLSVSEGEKVTLRCKSSNSLFNSGNQQNYLAWYQQKPGQPPKLLIYGPSTREFGVPDRFTGSGSGTDFTLISNVQEDLAVYYCQTDRTSAYTFGGGTKLEIK
- Kd [1]: 33.5 nM
- koff [1]: 0.00018 s⁻¹
- kon [1]: 5360 M⁻¹ s⁻¹
- Kd [2]: 33.5 nM
- koff [2]: 0.00018 s⁻¹
- kon [2]: 5360 M⁻¹ s⁻¹

B2: WT 1-5 (antibody, V domains shown)
VH: QVQLQQSGTELAKPGASVKFSCKASDYTFSSYWMYWIKQRPGQGLEWIGYLNPSTGHTEYNQKFKDKATLTADKSSSTAYMQLNSLTSEDSAVYYCARKYWGPFAMDYWGQGTSVTVSS
VL: EIFLTQSPAIMSASPGEKVTMTCSASSSVSYAHWYQQKSGTSPKRWIYDSSKIASGIPVRFSGSGSGTSYSLTISSMEAEDAATYYCQNWSTNPYTFGGGTKLEIKR
- Kd [1]: 80.6 nM
- koff [1]: 0.000533 s⁻¹
- kon [1]: 6610 M⁻¹ s⁻¹

B3: WT 1-22 (antibody, V domains shown)
VH: EVQLQQSGPELVKPGASVKMSCKASGYSFTLYVLHWVKQKPGQGLEWIGYIYPYIDGTRYNEKFKGKATLTVDKSSSTAFMELSSLTSEDSAVYYCARTGYGNYGLAWLAYWGQGTLVTVSA
VL: QAVVIQESALTTSPGETVTLTCRSSSGAVTTSQYANWVQEKPDHLFTGLIGGSNNRVPGVPARFSGSLIGDKAALTITGAQTEDEAIYFCAIVYSNNWVFGGGTKLTVLG
- Kd [1]: 47.8 nM
- koff [1]: 0.000308 s⁻¹
- kon [1]: 6450 M⁻¹ s⁻¹
